T1: FcγRIIb (human, UniProt P31994 43-217)
T1 construct: extracellular domain; Soluble extracellular domain with C-terminal His tag, used as analyte in Biacore; also called FcgRIIb; 2b; not shown: His tag attached to the C terminus
T1 sequence (looked up): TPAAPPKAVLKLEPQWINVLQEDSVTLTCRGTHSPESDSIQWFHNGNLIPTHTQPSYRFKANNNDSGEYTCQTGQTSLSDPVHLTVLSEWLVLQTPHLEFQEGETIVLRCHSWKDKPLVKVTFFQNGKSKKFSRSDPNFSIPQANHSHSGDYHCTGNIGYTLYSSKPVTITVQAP


Experiments:
[1] = target: T1, FcγRIIb; experiment: SPR (Biacore), antibody captured, FcγR as analyte; relative to GpH7-A5/GpH7-B3/GpL16-k0 = 100
Method: (§1) The heterodimerized antibodies He Abs in which one of the H chains was introduced with an alteration were assayed for their binding activities to each activating FcγR and inhibitory FcγR according to the method described in Example 4. […] The activating FcγRs in FIGS. 26, 27, 28, and 29 are FcγRIa, FcγRIIa (R), FcγRIIa (H), and FcγRIIIa, respectively.
(§2) Analysis of interaction between objective antibody and the FcγR was carried out using Biacore T100 (GE Healthcare). HBS-EP+ (GE Healthcare) was used as the running buffer, and the measurement temperature was set to 25° C. Chips produced by immobilizing the antigen peptide by the amine coupling method to a Series S Sencor Chip CM5 (GE Healthcare), or alternatively, chips produced by allowing preliminarily biotinylated antigen peptides to interact with and immobilize onto a Series S Sensor Chip SA (certified) (GE Healthcare) were used. Antibodies of interest were captured onto an antigen peptide-immobilized chip, and allowed to interact to each FcγR diluted with running buffer. To regenerate and repeatedly use the chip, the antibodies captured on the chip were washed off by reacting 10 mM glycine-HCl, pH 1.5.

[2] = target: T2, FcγRIa (human, UniProt P12314 16-292); experiment: as above
T2 construct: extracellular domain; Soluble extracellular domain with C-terminal His tag, used as analyte in Biacore; also called FcgRI; 1a; not shown: His tag attached to the C terminus
Method: as §1, §2

T2 sequence (P12314 16-292): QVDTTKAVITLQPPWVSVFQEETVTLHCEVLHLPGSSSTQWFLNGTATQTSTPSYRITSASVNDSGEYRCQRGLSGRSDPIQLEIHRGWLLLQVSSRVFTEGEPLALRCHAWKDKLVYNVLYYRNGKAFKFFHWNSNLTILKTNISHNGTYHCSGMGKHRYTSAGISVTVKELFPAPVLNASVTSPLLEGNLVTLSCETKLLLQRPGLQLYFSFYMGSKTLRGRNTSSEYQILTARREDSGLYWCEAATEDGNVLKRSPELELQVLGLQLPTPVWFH

Binder | He/Con_2b [1] | He/Con_1a [2]
GpH7-A5/GpH7-B3 variant A327_01G/GpL16-k0 (antibody, human IgG1, kappa, Heterodimerized anti-glypican-3 IgG1; alteration in the GpH7-B3 chain only; also called He Ab) heavy 1: not shown heavy 2: not shown light: DIVMTQSPLSLPVTPGEPASISCQASESLVHSNRNTYLHWYLQKPGQSPQLLIYKVSNRFSGVPDRFSGSGSGTDFTLKISRVEAEDVGVYYCSQNTHVPPTFGQGTKVEIERTVAAPSVFIFPPSDEQLKSGTASVVCLLNNFYPREAKVQWKVDNALQSGNSQESVTEQDSKDSTYSLSSTLTLSKADYEKHKVYACEVTHQGLSSPVTKSFNRGEC | 116 % of control (=100) | 99 % of control (=100)
GpH7-A5/GpH7-B3 variant N325_01G/GpL16-k0 (antibody, human IgG1, kappa, Heterodimerized anti-glypican-3 IgG1; alteration in the GpH7-B3 chain only; also called He Ab) heavy 1: not shown heavy 2: not shown light: DIVMTQSPLSLPVTPGEPASISCQASESLVHSNRNTYLHWYLQKPGQSPQLLIYKVSNRFSGVPDRFSGSGSGTDFTLKISRVEAEDVGVYYCSQNTHVPPTFGQGTKVEIERTVAAPSVFIFPPSDEQLKSGTASVVCLLNNFYPREAKVQWKVDNALQSGNSQESVTEQDSKDSTYSLSSTLTLSKADYEKHKVYACEVTHQGLSSPVTKSFNRGEC | 101 % of control (=100) | 97.1 % of control (=100)
GpH7-A5/GpH7-B3 variant L328_06M/GpL16-k0 (antibody, human IgG1, kappa, Heterodimerized anti-glypican-3 IgG1; alteration in the GpH7-B3 chain only; also called He Ab) heavy 1: not shown heavy 2: not shown light: DIVMTQSPLSLPVTPGEPASISCQASESLVHSNRNTYLHWYLQKPGQSPQLLIYKVSNRFSGVPDRFSGSGSGTDFTLKISRVEAEDVGVYYCSQNTHVPPTFGQGTKVEIERTVAAPSVFIFPPSDEQLKSGTASVVCLLNNFYPREAKVQWKVDNALQSGNSQESVTEQDSKDSTYSLSSTLTLSKADYEKHKVYACEVTHQGLSSPVTKSFNRGEC | 142 % of control (=100) | 98.7 % of control (=100)
GpH7-A5/GpH7-B3 variant N325_03V/GpL16-k0 (antibody, human IgG1, kappa, Heterodimerized anti-glypican-3 IgG1; alteration in the GpH7-B3 chain only; also called He Ab) heavy 1: not shown heavy 2: not shown light: DIVMTQSPLSLPVTPGEPASISCQASESLVHSNRNTYLHWYLQKPGQSPQLLIYKVSNRFSGVPDRFSGSGSGTDFTLKISRVEAEDVGVYYCSQNTHVPPTFGQGTKVEIERTVAAPSVFIFPPSDEQLKSGTASVVCLLNNFYPREAKVQWKVDNALQSGNSQESVTEQDSKDSTYSLSSTLTLSKADYEKHKVYACEVTHQGLSSPVTKSFNRGEC | 111 % of control (=100) | 95.6 % of control (=100)
GpH7-A5/GpH7-B3 variant G236_10E/GpL16-k0 (antibody, human IgG1, kappa, Heterodimerized anti-glypican-3 IgG1; alteration in the GpH7-B3 chain only; also called He Ab) heavy 1: not shown heavy 2: not shown light: DIVMTQSPLSLPVTPGEPASISCQASESLVHSNRNTYLHWYLQKPGQSPQLLIYKVSNRFSGVPDRFSGSGSGTDFTLKISRVEAEDVGVYYCSQNTHVPPTFGQGTKVEIERTVAAPSVFIFPPSDEQLKSGTASVVCLLNNFYPREAKVQWKVDNALQSGNSQESVTEQDSKDSTYSLSSTLTLSKADYEKHKVYACEVTHQGLSSPVTKSFNRGEC | 110 % of control (=100) | 93.7 % of control (=100)
GpH7-A5/GpH7-B3 variant N325_06M/GpL16-k0 (antibody, human IgG1, kappa, Heterodimerized anti-glypican-3 IgG1; alteration in the GpH7-B3 chain only; also called He Ab) heavy 1: not shown heavy 2: not shown light: DIVMTQSPLSLPVTPGEPASISCQASESLVHSNRNTYLHWYLQKPGQSPQLLIYKVSNRFSGVPDRFSGSGSGTDFTLKISRVEAEDVGVYYCSQNTHVPPTFGQGTKVEIERTVAAPSVFIFPPSDEQLKSGTASVVCLLNNFYPREAKVQWKVDNALQSGNSQESVTEQDSKDSTYSLSSTLTLSKADYEKHKVYACEVTHQGLSSPVTKSFNRGEC | 217 % of control (=100) | 97.6 % of control (=100)
GpH7-A5/GpH7-B3 variant L328_13S/GpL16-k0 (antibody, human IgG1, kappa, Heterodimerized anti-glypican-3 IgG1; alteration in the GpH7-B3 chain only; also called He Ab) heavy 1: not shown heavy 2: not shown light: DIVMTQSPLSLPVTPGEPASISCQASESLVHSNRNTYLHWYLQKPGQSPQLLIYKVSNRFSGVPDRFSGSGSGTDFTLKISRVEAEDVGVYYCSQNTHVPPTFGQGTKVEIERTVAAPSVFIFPPSDEQLKSGTASVVCLLNNFYPREAKVQWKVDNALQSGNSQESVTEQDSKDSTYSLSSTLTLSKADYEKHKVYACEVTHQGLSSPVTKSFNRGEC | 149 % of control (=100) | 99 % of control (=100)
GpH7-A5/GpH7-B3 variant L328_04F/GpL16-k0 (antibody, human IgG1, kappa, Heterodimerized anti-glypican-3 IgG1; alteration in the GpH7-B3 chain only; also called He Ab) heavy 1: not shown heavy 2: not shown light: DIVMTQSPLSLPVTPGEPASISCQASESLVHSNRNTYLHWYLQKPGQSPQLLIYKVSNRFSGVPDRFSGSGSGTDFTLKISRVEAEDVGVYYCSQNTHVPPTFGQGTKVEIERTVAAPSVFIFPPSDEQLKSGTASVVCLLNNFYPREAKVQWKVDNALQSGNSQESVTEQDSKDSTYSLSSTLTLSKADYEKHKVYACEVTHQGLSSPVTKSFNRGEC | 219 % of control (=100) | 97.9 % of control (=100)
GpH7-A5/GpH7-B3 variant N325_04F/GpL16-k0 (antibody, human IgG1, kappa, Heterodimerized anti-glypican-3 IgG1; alteration in the GpH7-B3 chain only; also called He Ab) heavy 1: not shown heavy 2: not shown light: DIVMTQSPLSLPVTPGEPASISCQASESLVHSNRNTYLHWYLQKPGQSPQLLIYKVSNRFSGVPDRFSGSGSGTDFTLKISRVEAEDVGVYYCSQNTHVPPTFGQGTKVEIERTVAAPSVFIFPPSDEQLKSGTASVVCLLNNFYPREAKVQWKVDNALQSGNSQESVTEQDSKDSTYSLSSTLTLSKADYEKHKVYACEVTHQGLSSPVTKSFNRGEC | 143 % of control (=100) | 93.2 % of control (=100)
GpH7-A5/GpH7-B3 variant N325_08L/GpL16-k0 (antibody, human IgG1, kappa, Heterodimerized anti-glypican-3 IgG1; alteration in the GpH7-B3 chain only; also called He Ab) heavy 1: not shown heavy 2: not shown light: DIVMTQSPLSLPVTPGEPASISCQASESLVHSNRNTYLHWYLQKPGQSPQLLIYKVSNRFSGVPDRFSGSGSGTDFTLKISRVEAEDVGVYYCSQNTHVPPTFGQGTKVEIERTVAAPSVFIFPPSDEQLKSGTASVVCLLNNFYPREAKVQWKVDNALQSGNSQESVTEQDSKDSTYSLSSTLTLSKADYEKHKVYACEVTHQGLSSPVTKSFNRGEC | 197 % of control (=100) | 97.5 % of control (=100)
GpH7-A5/GpH7-B3 variant L328_07I/GpL16-k0 (antibody, human IgG1, kappa, Heterodimerized anti-glypican-3 IgG1; alteration in the GpH7-B3 chain only; also called He Ab) heavy 1: not shown heavy 2: not shown light: DIVMTQSPLSLPVTPGEPASISCQASESLVHSNRNTYLHWYLQKPGQSPQLLIYKVSNRFSGVPDRFSGSGSGTDFTLKISRVEAEDVGVYYCSQNTHVPPTFGQGTKVEIERTVAAPSVFIFPPSDEQLKSGTASVVCLLNNFYPREAKVQWKVDNALQSGNSQESVTEQDSKDSTYSLSSTLTLSKADYEKHKVYACEVTHQGLSSPVTKSFNRGEC | 160 % of control (=100) | 99.4 % of control (=100)
GpH7-A5/GpH7-B3 variant L234_20W/GpL16-k0 (antibody, human IgG1, kappa, Heterodimerized anti-glypican-3 IgG1; alteration in the GpH7-B3 chain only; also called He Ab) heavy 1: not shown heavy 2: not shown light: DIVMTQSPLSLPVTPGEPASISCQASESLVHSNRNTYLHWYLQKPGQSPQLLIYKVSNRFSGVPDRFSGSGSGTDFTLKISRVEAEDVGVYYCSQNTHVPPTFGQGTKVEIERTVAAPSVFIFPPSDEQLKSGTASVVCLLNNFYPREAKVQWKVDNALQSGNSQESVTEQDSKDSTYSLSSTLTLSKADYEKHKVYACEVTHQGLSSPVTKSFNRGEC | 114 % of control (=100) | 98.6 % of control (=100)
GpH7-A5/GpH7-B3 variant A327_18N/GpL16-k0 (antibody, human IgG1, kappa, Heterodimerized anti-glypican-3 IgG1; alteration in the GpH7-B3 chain only; also called He Ab) heavy 1: not shown heavy 2: not shown light: DIVMTQSPLSLPVTPGEPASISCQASESLVHSNRNTYLHWYLQKPGQSPQLLIYKVSNRFSGVPDRFSGSGSGTDFTLKISRVEAEDVGVYYCSQNTHVPPTFGQGTKVEIERTVAAPSVFIFPPSDEQLKSGTASVVCLLNNFYPREAKVQWKVDNALQSGNSQESVTEQDSKDSTYSLSSTLTLSKADYEKHKVYACEVTHQGLSSPVTKSFNRGEC | 113 % of control (=100) | 97.7 % of control (=100)
GpH7-A5/GpH7-B3 variant L235_04F/GpL16-k0 (antibody, human IgG1, kappa, Heterodimerized anti-glypican-3 IgG1; alteration in the GpH7-B3 chain only; also called He Ab) heavy 1: not shown heavy 2: not shown light: DIVMTQSPLSLPVTPGEPASISCQASESLVHSNRNTYLHWYLQKPGQSPQLLIYKVSNRFSGVPDRFSGSGSGTDFTLKISRVEAEDVGVYYCSQNTHVPPTFGQGTKVEIERTVAAPSVFIFPPSDEQLKSGTASVVCLLNNFYPREAKVQWKVDNALQSGNSQESVTEQDSKDSTYSLSSTLTLSKADYEKHKVYACEVTHQGLSSPVTKSFNRGEC | 118 % of control (=100) | 97.1 % of control (=100)
GpH7-A5/GpH7-B3 variant G237_13S/GpL16-k0 (antibody, human IgG1, kappa, Heterodimerized anti-glypican-3 IgG1; alteration in the GpH7-B3 chain only; also called He Ab) heavy 1: not shown heavy 2: not shown light: DIVMTQSPLSLPVTPGEPASISCQASESLVHSNRNTYLHWYLQKPGQSPQLLIYKVSNRFSGVPDRFSGSGSGTDFTLKISRVEAEDVGVYYCSQNTHVPPTFGQGTKVEIERTVAAPSVFIFPPSDEQLKSGTASVVCLLNNFYPREAKVQWKVDNALQSGNSQESVTEQDSKDSTYSLSSTLTLSKADYEKHKVYACEVTHQGLSSPVTKSFNRGEC | 111 % of control (=100) | 92.2 % of control (=100)
GpH7-A5/GpH7-B3 variant L328_02A/GpL16-k0 (antibody, human IgG1, kappa, Heterodimerized anti-glypican-3 IgG1; alteration in the GpH7-B3 chain only; also called He Ab) heavy 1: not shown heavy 2: not shown light: DIVMTQSPLSLPVTPGEPASISCQASESLVHSNRNTYLHWYLQKPGQSPQLLIYKVSNRFSGVPDRFSGSGSGTDFTLKISRVEAEDVGVYYCSQNTHVPPTFGQGTKVEIERTVAAPSVFIFPPSDEQLKSGTASVVCLLNNFYPREAKVQWKVDNALQSGNSQESVTEQDSKDSTYSLSSTLTLSKADYEKHKVYACEVTHQGLSSPVTKSFNRGEC | 144 % of control (=100) | 98.5 % of control (=100)
GpH7-A5/GpH7-B3 variant N325_07I/GpL16-k0 (antibody, human IgG1, kappa, Heterodimerized anti-glypican-3 IgG1; alteration in the GpH7-B3 chain only; also called He Ab) heavy 1: not shown heavy 2: not shown light: DIVMTQSPLSLPVTPGEPASISCQASESLVHSNRNTYLHWYLQKPGQSPQLLIYKVSNRFSGVPDRFSGSGSGTDFTLKISRVEAEDVGVYYCSQNTHVPPTFGQGTKVEIERTVAAPSVFIFPPSDEQLKSGTASVVCLLNNFYPREAKVQWKVDNALQSGNSQESVTEQDSKDSTYSLSSTLTLSKADYEKHKVYACEVTHQGLSSPVTKSFNRGEC | 171 % of control (=100) | 94.8 % of control (=100)
